Experimental data as given in patent publication US20110059060A1.

Molecular target: thuricin CD (Bacillus thuringiensis DPC 6431)

Substance | antimicrobial activity after enzyme treatment (well diffusion assay, C. difficile ATCC 43593) (% reduction in activity)
pepsin (enzyme) | 50
trypsin (enzyme) | 20
